# Results published in EP4678184A2 (CREATE Medicines, Inc., dated 2026).
# T1: Alexa488 conjugated human CD5 protein (human, UniProt P06127 25-372, limits assumed, Alexa488 conjugated (site not stated))
# T1 sequence (looked up): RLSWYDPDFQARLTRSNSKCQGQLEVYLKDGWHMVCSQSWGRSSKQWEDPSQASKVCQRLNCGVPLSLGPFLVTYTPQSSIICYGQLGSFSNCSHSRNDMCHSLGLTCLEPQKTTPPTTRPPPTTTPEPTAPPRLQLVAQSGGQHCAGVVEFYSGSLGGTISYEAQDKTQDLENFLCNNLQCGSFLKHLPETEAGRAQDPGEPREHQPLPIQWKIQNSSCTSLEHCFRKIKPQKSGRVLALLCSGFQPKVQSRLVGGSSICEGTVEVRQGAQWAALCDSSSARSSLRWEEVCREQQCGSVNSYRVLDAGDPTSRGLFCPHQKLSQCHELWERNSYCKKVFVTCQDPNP
# B1: CD5-CAR (anti-CD5 chimeric antigen receptor on electroporated CD14+ monocytes, Example 15) (receptor, not shown: small tags and cut ends)
# chain: EIQLVQSGGGLVKPGGSVRISCAASGYTFTNYGMNWVRQAPGKGLEWMGWINTHTGEPTYADSFKGRFTFSLDDSKNTAYLQINSLRAEDTAVYFCTRRGYDWYFDVWGQGTTVTVSSGGGGSGGGGSGGGGSDIQMTQSPSSLSASVGDRVTITCRASQDINSYLSWFQQKPGKAPKTLIYRANRLESGVPSRFSGSGSGTDYTLTISSLQYEDFGIYYCQQYDESPWTFGGGTKLEIK
# notes: also called CD5-CAR monocytes
# Target: T1, Alexa488 conjugated human CD5 protein
# Assay: flow cytometry, labelled soluble CD5 on electroporated CD14+ monocytes, 24, 48 and 72 hours post thaw
binder,measurement,value
B1,binding result,binds
